These are literature values, as cited in PMC9871372.

This data set concerns the target NisA precursor peptide (Lactococcus lactis) (UniProt P13068).
Chain of UniProt P13068 (P13068 24-57): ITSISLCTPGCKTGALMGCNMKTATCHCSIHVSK

For NisB (from UniProt P20103), the Kd (as a rule, the equilibrium constant for the complex coming apart) is 1.05 µM.
